Data published in paper PMC3726324, “Characterization of the PAS domain in the sensor-kinase BvgS: mechanical role in signal transmission” (BMC Microbiology, 2013).
Substitutions are numbered along the chain they refer to. Names and notes keep the numbering of the source.

B1: N2C3 Asn608Ala (BvgS residues 573-720, N608A) (domain or fragment)
chain: AERALNDQLEFMRVLIDGTPNPIYVRDKEGRMLLCADAYLDTFGVTADAVLGKTIPEANVVGDPALAREMHEFLLTRVAAEREPRFEDRDVTLHGRTRHVYQWTIPYGDSLGELKGIIGGWIDITERAELLRELHDAKESADAANRAK
notes: numbering from the initiation Met of full-length BvgS; source: E. coli BL21 (DE3), pASK-IBA35+, soluble fraction; produced in very low amounts
B2: N2C3 Cys607Ala (BvgS residues 573-720, C607A) (domain or fragment)
chain: B1 chain with C35A, A36N
notes: numbering from the initiation Met of full-length BvgS; source: E. coli BL21 (DE3), pASK-IBA35+, purified
B3: N2C3 Asp695Ala (BvgS residues 573-720, D695A) (domain or fragment)
chain: B1 chain with A36N, D123A
notes: as for B2
B4: N2C3 Tyr596Ala + Asn631Ala (BvgS residues 573-720, Y596A + N631A) (domain or fragment)
chain: B1 chain with Y24A, A36N, N59A
notes: as for B2
B5: N2C3 Asn608Ser (BvgS residues 573-720, N608S) (domain or fragment)
chain: B1 chain with A36S
notes: as for B2
B6: N2C3 His643Ala (BvgS residues 573-720, H643A) (domain or fragment)
chain: B1 chain with A36N, H71A
notes: as for B2
B7: N2C3 Arg670Ala (BvgS residues 573-720, R670A) (domain or fragment)
chain: B1 chain with A36N, R98A
notes: as for B2

Assays:
[1] = molecular target: recombinant PASBvg protein N3C2 (BvgS residues 581-714) (Bordetella pertussis) (UniProt P16575); test: SEC; size-exclusion chromatography of the purified recombinant proteins; data not shown
[2] = molecular target: recombinant PASBvg protein N3C3 (BvgS residues 581-720) (Bordetella pertussis) (UniProt P16575); test: as above
[3] = molecular target: recombinant PASBvg protein N2C2 (BvgS residues 573-714) (Bordetella pertussis) (UniProt P16575); test: as above
[4] = molecular target: recombinant PASBvg protein N2C3 (BvgS residues 573-720) (Bordetella pertussis) (UniProt P16575); test: native MS; ESI-Q-TOF, positive ion mode, native conditions; purified N2C3 at 10 uM in 27 mM ammonium acetate
[5] = molecular target: recombinant PASBvg protein N2C3 (BvgS residues 573-720) (Bordetella pertussis) (UniProt P16575); test: SEC; size-exclusion chromatography of the purified recombinant proteins; data not shown
[6] = molecular target: the molecule itself; test: not stated; oligomeric state of the purified or soluble N2C3 variants; method not named; not shown

Row | Molecule | stoichiometry N [6] | other results
1 | recombinant PASBvg protein N3C2 (BvgS residues 581-714) (from UniProt P16575 581-714) (domain or fragment) | – | stoichiometry N [1]: 2
2 | recombinant PASBvg protein N3C3 (BvgS residues 581-720) (from UniProt P16575 581-720) (domain or fragment) | – | stoichiometry N [2]: 2
3 | recombinant PASBvg protein N2C2 (BvgS residues 573-714) (from UniProt P16575 573-714) (domain or fragment) | – | stoichiometry N [3]: 2
4 | recombinant PASBvg protein N2C3 (BvgS residues 573-720) (from UniProt P16575 573-720) (domain or fragment) | – | stoichiometry N [4]: 2; stoichiometry N [5]: 2
5 | B1 | 2 | –
6 | B2 | 2 | –
7 | B3 | 2 | –
8 | B4 | 2 | –
9 | B5 | 2 | –
10 | B6 | 2 | –
11 | B7 | 2 | –
